“And” between values parts separate entries of the source, which are not always exact repeats. Identical values can stand only once. Like-named read-outs stand apart in the source and are kept apart here.

Experiment [1] deals with human complement component C5 (human), P01031. Briefly: SPR multi-cycle kinetics.
The target is the same in experiment [2].
For experiment [3] the target is unchanged. This is another data set of the same source.
Experiment [4] has the same target. The source holds these as a separate data set.
The target is the same in experiment [5]. The source holds these as a separate data set.

human complement component C5 (human), P01031, sequence (P01031 19-673 limits assumed, chain 1 of 2): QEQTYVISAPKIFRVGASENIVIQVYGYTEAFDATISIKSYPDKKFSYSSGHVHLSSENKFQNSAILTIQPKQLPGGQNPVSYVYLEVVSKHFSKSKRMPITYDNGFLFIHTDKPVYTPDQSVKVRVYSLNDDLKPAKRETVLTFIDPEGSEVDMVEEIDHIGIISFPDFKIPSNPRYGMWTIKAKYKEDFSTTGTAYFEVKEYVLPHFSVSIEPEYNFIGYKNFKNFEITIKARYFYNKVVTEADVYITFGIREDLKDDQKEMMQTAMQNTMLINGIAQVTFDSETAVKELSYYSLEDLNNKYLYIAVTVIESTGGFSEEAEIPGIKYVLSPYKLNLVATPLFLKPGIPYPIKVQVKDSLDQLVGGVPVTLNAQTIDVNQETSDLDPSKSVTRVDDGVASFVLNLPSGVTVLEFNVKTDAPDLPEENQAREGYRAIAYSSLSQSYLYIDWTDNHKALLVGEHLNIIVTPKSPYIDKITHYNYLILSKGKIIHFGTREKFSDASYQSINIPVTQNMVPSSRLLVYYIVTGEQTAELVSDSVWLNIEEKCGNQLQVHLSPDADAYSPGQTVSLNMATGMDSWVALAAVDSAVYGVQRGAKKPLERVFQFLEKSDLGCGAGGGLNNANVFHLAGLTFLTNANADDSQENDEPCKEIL
human complement component C5 (human), P01031, sequence (P01031 678-1676 limits assumed, chain 2 of 2): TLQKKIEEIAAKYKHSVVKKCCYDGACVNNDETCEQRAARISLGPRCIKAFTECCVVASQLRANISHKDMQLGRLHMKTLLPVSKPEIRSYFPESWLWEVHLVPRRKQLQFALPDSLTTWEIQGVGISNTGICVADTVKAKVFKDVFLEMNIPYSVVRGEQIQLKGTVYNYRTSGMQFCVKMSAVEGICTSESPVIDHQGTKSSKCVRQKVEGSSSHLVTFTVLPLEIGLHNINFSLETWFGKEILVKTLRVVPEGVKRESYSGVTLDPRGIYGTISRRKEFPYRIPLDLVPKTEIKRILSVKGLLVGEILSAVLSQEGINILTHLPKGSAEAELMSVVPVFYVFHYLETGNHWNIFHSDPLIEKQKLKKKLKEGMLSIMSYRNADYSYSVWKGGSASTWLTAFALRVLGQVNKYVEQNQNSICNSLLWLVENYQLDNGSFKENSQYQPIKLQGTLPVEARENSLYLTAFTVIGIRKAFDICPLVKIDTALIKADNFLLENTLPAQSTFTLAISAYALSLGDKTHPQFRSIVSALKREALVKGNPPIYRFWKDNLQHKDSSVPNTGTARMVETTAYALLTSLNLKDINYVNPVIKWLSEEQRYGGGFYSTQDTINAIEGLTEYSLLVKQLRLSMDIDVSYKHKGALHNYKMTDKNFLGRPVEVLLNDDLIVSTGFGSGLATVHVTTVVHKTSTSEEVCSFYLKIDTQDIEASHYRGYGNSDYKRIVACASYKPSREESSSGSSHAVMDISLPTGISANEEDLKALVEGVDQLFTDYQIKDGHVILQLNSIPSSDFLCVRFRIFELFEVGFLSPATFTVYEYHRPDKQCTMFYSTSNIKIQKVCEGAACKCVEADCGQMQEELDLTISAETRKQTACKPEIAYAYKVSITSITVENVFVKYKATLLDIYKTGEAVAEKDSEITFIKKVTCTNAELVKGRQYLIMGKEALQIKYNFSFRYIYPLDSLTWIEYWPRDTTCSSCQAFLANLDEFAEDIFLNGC

B1: K149B knob domain peptide, chemically synthesised, site-directed disulphides (peptide)
peptide: SCPDGFSYRSWDDFCCPMVGRCLAPRN
modifications: not checked
B1: the fold lower affinity than K149chemSD-A in experiment [1] came out at 35 fold. In experiment [2], this molecule displayed a Kd of 269 nM, a koff of 0.00417 s⁻¹ and a kon of 15600 M⁻¹ s⁻¹. Also, in experiment [3], the Kd worked out at 246 nM, the koff was 0.00732 s⁻¹ and the kon was 29700 M⁻¹ s⁻¹.

B2: K149 knob domain peptide, chemically synthesised, free energy method (Example 4) (peptide)
peptide: SCPDGFSYRSWDDFCCPMVGRCLAPRNGS
modifications: not checked
Take B2: in experiment [3], the Kd was found to be 4.46 nM, the koff was determined as 0.00685 s⁻¹ and the kon worked out at 1.54e+06 M⁻¹ s⁻¹.

B3: K136 knob domain peptide cleaved from the 645 Fab (peptide)
peptide: GSTCPDNYREVDGCDPYDCCLTTWCTNSYCTRYIENLYFQ
modifications: not checked
On to B3, for which, in experiment [4], the IC50 is 44.9 nM and 31.2 nM; the Ki is 18.9 nM. Moreover, the Kd in experiment [5] is 6.4 nM.

B4: K149 knob domain peptide cleaved from the 645 Fab (peptide)
peptide: GSGSCPDGFSYRSWDDFCCPMVGRCLAPRNGSENLYFQ
modifications: not checked
Take B4: the inhibition constant (Ki) in experiment [4] is 26.7 nM. The molecule also returned a Kd in experiment [5] of 36.5 nM.

B5: K149chemFE knob domain peptide (peptide)
peptide: SCPDGFSYRSWDDFCCPMVGRCLAPRN
modifications: not checked
Take B5: in experiment [2], the Kd turned out to be 5.57 nM, the koff turned out to be 0.00448 s⁻¹ and the kon stood at 861000 M⁻¹ s⁻¹.

A word on the Kd: it is the constant that tells how readily two partners part at equilibrium. A higher Kd goes with weaker binding. Usually koff stands for a measure of how fast the partners let go of each other. In general, kon refers to a measure of how fast the partners come together. Low values mean slower complex formation, high ones faster complex formation. Broadly, the IC50 is the concentration at which inhibition is half-maximal. A word on the Ki: it is a dissociation constant, usually derived from enzyme kinetics or from competition with a known ligand. A higher Ki goes with a looser hold on the target.

Values taken from US20240024520A1, “AUTONOMOUS KNOB DOMAIN PEPTIDES” (UCB BIOPHARMA SRL, priority 2020, published 2024).
